In paper PMC11645250:
Read-outs that look alike come from different tables or passages of the source.

How the values were obtained:
[1] = target: IBDV VP3 D1–D2–D3 construct (residues 1–221) (infectious bursal disease virus (IBDV)); assay: SEC-MALS
[2] = target: IBDV VP3 D1–D2–D3 construct (residues 1–221) (infectious bursal disease virus (IBDV)); assay: SAXS
[3] = target: IBDV VP3 D1–D2–D3 construct (residues 1–221) (infectious bursal disease virus (IBDV)); assay: cross-linking
[4] = target: IBDV VP3 D1–D2–D3 construct (residues 1–221) (infectious bursal disease virus (IBDV)); assay: cross-linking; remark: listed apart in the source
[5] = target: IBDV VP3 N-terminal construct (residues 1–81, D1 domain) (infectious bursal disease virus (IBDV)); assay: SEC-MALS
[6] = target: IBDV VP3 N-terminal construct (residues 1–81, D1 domain) (infectious bursal disease virus (IBDV)); assay: SAXS
[7] = target: IBDV VP3 N-terminal construct (residues 1–81, D1 domain) (infectious bursal disease virus (IBDV)); assay: cross-linking
[8] = target: IBDV VP3 central domains construct (residues 89–221, D2–D3) (infectious bursal disease virus (IBDV)); assay: cross-linking
VP3 1-81 (D1) = target: T1, VP3 1-81 (D1) (Infectious bursal disease virus (Soroa …, UniProt Q9WI42 756-836)); assay: EMSA
T1 sequence: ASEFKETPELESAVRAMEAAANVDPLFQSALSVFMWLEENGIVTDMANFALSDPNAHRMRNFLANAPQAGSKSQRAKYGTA

## IBDV VP3 D1–D2–D3 construct (residues 1–221) (domain or fragment)
[1]
  % of total sample in the predominant (dimer) peak: 98.8%
  stoichiometry N: 2
[2]
  stoichiometry N: 2
[3]
  % of protein in dimers and higher MW species after BS3 cross-linking: 93.2%
[4]
  % of protein in dimers and higher MW species after BS3 cross-linking: 93.3%

## IBDV VP3 N-terminal construct (residues 1–81, D1 domain) (domain or fragment)
[5]
  stoichiometry N: 2
[6]
  stoichiometry N: 2
[7]
  % of the band in the dimeric form after BS3 cross-linking: 96.9%

## IBDV VP3 central domains construct (residues 89–221, D2–D3) (domain or fragment)
[8]
  % dimerization/oligomerization after BS3 cross-linking: 43.5%

B1: 28 bp dsRNA (dsRNA)
RNA 1: AGAACCUGUUGAACAAAAGCCGAAUAAU
RNA 2: AUUAUUCGGCUUUUGUUCAACAGGUUCU
VP3 1-81 (D1)
  binding result: no binding
